Where “and” joins values, the source holds several entries; their conditions need not be identical. Equal entries are not always repeated.
Experiments:
[1] = biological target: Plasmodium falciparum heat shock factor binding protein (PfHSBP), endogenous (P. falciparum (endogenous in 3D7 parasites)) (UniProt Q8IIF8); experiment: immunoprecipitation, SDS-PAGE and phosphorimaging; lysate of [35S]-labelled P. falciparum (1% Triton X-100); anti-PfHSBP antiserum 1:25 at 4°C for 12 hours, Protein G beads; Protein G and pre-immune serum controls
[2] = biological target: Plasmodium falciparum heat shock factor binding protein (PfHSBP), endogenous (P. falciparum (endogenous in 3D7 parasites)) (UniProt Q8IIF8); experiment: SEC; P. falciparum lysate on Superdex 200 10/300 GL in PBS; fractions immunoblotted for PfHSBP
[3] = biological target: Plasmodium falciparum heat shock factor binding protein (PfHSBP), endogenous (P. falciparum (endogenous in 3D7 parasites)) (UniProt Q8IIF8); experiment: SDS-PAGE and immunoblot (SDS-resistant oligomers); P. falciparum lysate resolved on SDS-PAGE and probed with anti-PfHSBP antiserum; pre-immune serum as control

stoichiometry N [1]: 6 | stoichiometry N [2]: 6 | stoichiometry N [3]: 3 and 6
Substance: Plasmodium falciparum heat shock factor binding protein (PfHSBP), endogenous (from UniProt Q8IIF8 1-113) (natural protein)

Reference: PMC3994269
